Test results as given in patent US20160347814A1.

Target: Inducible counterpart receptor for VSTM5 on anti-CD3 activated human CD4+ T cells
Assay: FACS on anti-CD3 activated primary human CD4+ T cells, 100 ug/ml; background of the isotype control on the whole cells

- gMFI: 0.335
Substance: Synagis (Palivizumab, anti-RSV humanized IgG1 mAb) (antibody)
